Test results taken from publication PMC10065947.
Each block holds one binder with its values, some of them ahead of it.

Columns and labels:
[1] = target: naïve fusion 2 (UniProt P06241)
[2] = target: SH3-588 (UniProt P06241)
[3] = target: naïve fusion of WT Fyn-SH3 and WT COMT (UniProt P06241)
[4] = target: SH3-588 (UniProt P06241); test: fluorescence polarisation
[5] = target: catechol O-methyltransferase (COMT), wild type (UniProt P22734)
[6] = target: SH3-003 (UniProt P06241)

catechol O-methyltransferase (COMT), wild type, sequence (P22734 44-264): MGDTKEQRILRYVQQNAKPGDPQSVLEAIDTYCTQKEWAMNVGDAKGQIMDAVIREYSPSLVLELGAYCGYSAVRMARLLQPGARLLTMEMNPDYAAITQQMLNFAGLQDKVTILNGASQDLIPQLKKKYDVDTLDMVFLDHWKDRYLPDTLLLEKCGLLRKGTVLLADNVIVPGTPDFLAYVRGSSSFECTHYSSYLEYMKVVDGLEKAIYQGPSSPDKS

B4: peptide 2 (peptide)
peptide: EWAPPLPPRNRPRRSGGSKETYSK
HELM: PEPTIDE1{E.W.A.P.P.L.P.P.R.N.R.P.R.R.S.G.G.S.K.E.T.[O=C([C@H](Cc1ccc(O)c(O)c1)N[*:1])[*:2]].S.K.[am]}$$$$V2.0; N-terminus assumed
SMILES: CC(C)C[C@H](NC(=O)[C@@H]1CCCN1C(=O)[C@@H]1CCCN1C(=O)[C@H](C)NC(=O)[C@H](Cc1c[nH]c2ccccc12)NC(=O)[C@@H](N)CCC(=O)O)C(=O)N1CCC[C@H]1C(=O)N1CCC[C@H]1C(=O)N[C@@H](CCCNC(=N)N)C(=O)N[C@@H](CC(N)=O)C(=O)N[C@@H](CCCNC(=N)N)C(=O)N1CCC[C@H]1C(=O)N[C@@H](CCCNC(=N)N)C(=O)N[C@@H](CCCNC(=N)N)C(=O)N[C@@H](CO)C(=O)NCC(=O)NCC(=O)N[C@@H](CO)C(=O)N[C@@H](CCCCN)C(=O)N[C@@H](CCC(=O)O)C(=O)N[C@H](C(=O)N[C@@H](Cc1ccc(O)c(O)c1)C(=O)N[C@@H](CO)C(=O)N[C@@H](CCCCN)C(N)=O)[C@@H](C)O
- KM of methylation (steady-state kinetics, MTase-Glo) [5]: 132 µM

B5: peptide 3 (peptide)
peptide: YDLFNKGSGGAPPLPPRNRPRRS
HELM: PEPTIDE1{[N[C@@H](Cc1ccc(O)c(O)c1)C(=O)[*:2]].D.L.F.N.K.G.S.G.G.A.P.P.L.P.P.R.N.R.P.R.R.S.[am]}$$$$V2.0; N-terminus assumed
SMILES: CC(C)C[C@H](NC(=O)[C@H](CC(=O)O)NC(=O)[C@@H](N)Cc1ccc(O)c(O)c1)C(=O)N[C@@H](Cc1ccccc1)C(=O)N[C@@H](CC(N)=O)C(=O)N[C@@H](CCCCN)C(=O)NCC(=O)N[C@@H](CO)C(=O)NCC(=O)NCC(=O)N[C@@H](C)C(=O)N1CCC[C@H]1C(=O)N1CCC[C@H]1C(=O)N[C@@H](CC(C)C)C(=O)N1CCC[C@H]1C(=O)N1CCC[C@H]1C(=O)N[C@@H](CCCNC(=N)N)C(=O)N[C@@H](CC(N)=O)C(=O)N[C@@H](CCCNC(=N)N)C(=O)N1CCC[C@H]1C(=O)N[C@@H](CCCNC(=N)N)C(=O)N[C@@H](CCCNC(=N)N)C(=O)N[C@@H](CO)C(N)=O
- KM of methylation (steady-state kinetics, MTase-Glo) [2]: 6 µM

B6: peptide 1 (peptide)
peptide: MKEARSAEAKEAGRGSGGSKNFLDY
HELM: PEPTIDE1{M.K.E.A.R.S.A.E.A.K.E.A.G.R.G.S.G.G.S.K.N.F.L.D.[O=C([C@H](Cc1ccc(O)c(O)c1)N[*:1])[*:2]].[am]}$$$$V2.0; N-terminus assumed
SMILES: CSCC[C@H](N)C(=O)N[C@@H](CCCCN)C(=O)N[C@@H](CCC(=O)O)C(=O)N[C@@H](C)C(=O)N[C@@H](CCCNC(=N)N)C(=O)N[C@@H](CO)C(=O)N[C@@H](C)C(=O)N[C@@H](CCC(=O)O)C(=O)N[C@@H](C)C(=O)N[C@@H](CCCCN)C(=O)N[C@@H](CCC(=O)O)C(=O)N[C@@H](C)C(=O)NCC(=O)N[C@@H](CCCNC(=N)N)C(=O)NCC(=O)N[C@@H](CO)C(=O)NCC(=O)NCC(=O)N[C@@H](CO)C(=O)N[C@@H](CCCCN)C(=O)N[C@@H](CC(N)=O)C(=O)N[C@@H](Cc1ccccc1)C(=O)N[C@@H](CC(C)C)C(=O)N[C@@H](CC(=O)O)C(=O)N[C@@H](Cc1ccc(O)c(O)c1)C(N)=O
- KM of methylation (steady-state kinetics, MTase-Glo) [6]: 30 µM
- KM of methylation (steady-state kinetics, MTase-Glo) [2]: 19 µM
- KM of methylation (steady-state kinetics, MTase-Glo) [5]: 42 µM
- KM of methylation (steady-state kinetics, MTase-Glo) [3]: 40 µM

Second part, the binder after the results:

- KM of methylation (steady-state kinetics, MTase-Glo) [1]: 0.6 µM
- KM of methylation (steady-state kinetics, MTase-Glo) [2]: 130 µM
- KM of methylation (steady-state kinetics, MTase-Glo) [3]: 400 µM
B1: peptide 7 (peptide)
peptide: EWAPPLPPRNRPRRSYSK
HELM: PEPTIDE1{E.W.A.P.P.L.P.P.R.N.R.P.R.R.S.[O=C([C@H](Cc1ccc(O)c(O)c1)N[*:1])[*:2]].S.K.[am]}$$$$V2.0; N-terminus assumed
SMILES: CC(C)C[C@H](NC(=O)[C@@H]1CCCN1C(=O)[C@@H]1CCCN1C(=O)[C@H](C)NC(=O)[C@H](Cc1c[nH]c2ccccc12)NC(=O)[C@@H](N)CCC(=O)O)C(=O)N1CCC[C@H]1C(=O)N1CCC[C@H]1C(=O)N[C@@H](CCCNC(=N)N)C(=O)N[C@@H](CC(N)=O)C(=O)N[C@@H](CCCNC(=N)N)C(=O)N1CCC[C@H]1C(=O)N[C@@H](CCCNC(=N)N)C(=O)N[C@@H](CCCNC(=N)N)C(=O)N[C@@H](CO)C(=O)N[C@@H](Cc1ccc(O)c(O)c1)C(=O)N[C@@H](CO)C(=O)N[C@@H](CCCCN)C(N)=O

- Kd [4]: 0.69 µM
B2: peptide 4 (peptide)
peptide: APPLPPRNRPRRSGKNFLDY
HELM: PEPTIDE1{A.P.P.L.P.P.R.N.R.P.R.R.S.G.K.N.F.L.D.[O=C([C@H](Cc1ccc(O)c(O)c1)N[*:1])[*:2]].[am]}$$$$V2.0; N-terminus assumed
SMILES: CC(C)C[C@H](NC(=O)[C@H](Cc1ccccc1)NC(=O)[C@H](CC(N)=O)NC(=O)[C@H](CCCCN)NC(=O)CNC(=O)[C@H](CO)NC(=O)[C@H](CCCNC(=N)N)NC(=O)[C@H](CCCNC(=N)N)NC(=O)[C@@H]1CCCN1C(=O)[C@H](CCCNC(=N)N)NC(=O)[C@H](CC(N)=O)NC(=O)[C@H](CCCNC(=N)N)NC(=O)[C@@H]1CCCN1C(=O)[C@@H]1CCCN1C(=O)[C@H](CC(C)C)NC(=O)[C@@H]1CCCN1C(=O)[C@@H]1CCCN1C(=O)[C@H](C)N)C(=O)N[C@@H](CC(=O)O)C(=O)N[C@@H](Cc1ccc(O)c(O)c1)C(N)=O

- Kd [4]: 22 µM
- KM of methylation (steady-state kinetics, MTase-Glo) [2]: 1.5 µM
B3: peptide 5 (peptide)
peptide: APPAPPRNRPRRSGKNFLDY
HELM: PEPTIDE1{A.P.P.A.P.P.R.N.R.P.R.R.S.G.K.N.F.L.D.[O=C([C@H](Cc1ccc(O)c(O)c1)N[*:1])[*:2]].[am]}$$$$V2.0; N-terminus assumed
SMILES: CC(C)C[C@H](NC(=O)[C@H](Cc1ccccc1)NC(=O)[C@H](CC(N)=O)NC(=O)[C@H](CCCCN)NC(=O)CNC(=O)[C@H](CO)NC(=O)[C@H](CCCNC(=N)N)NC(=O)[C@H](CCCNC(=N)N)NC(=O)[C@@H]1CCCN1C(=O)[C@H](CCCNC(=N)N)NC(=O)[C@H](CC(N)=O)NC(=O)[C@H](CCCNC(=N)N)NC(=O)[C@@H]1CCCN1C(=O)[C@@H]1CCCN1C(=O)[C@H](C)NC(=O)[C@@H]1CCCN1C(=O)[C@@H]1CCCN1C(=O)[C@H](C)N)C(=O)N[C@@H](CC(=O)O)C(=O)N[C@@H](Cc1ccc(O)c(O)c1)C(N)=O
